Here are results for one molecule from patent US9279769B2, “Proteins that efficiently generate singlet oxygen” (The Regents of the University of California, priority 2010, dated 2016).

Values joined by “and” are separate entries in the source; they are usually repeats but may differ in a detail not shown here. Equal entries are not always repeated.

The experiment has as its system IFP1.4. The experiment is described as follows: bleaching of fused IFP1.4 in E. coli colonies by blue light. Type of experiment: cell-based. From the text: In phototropin, the excited state energy of FMN is consumed to form a covalent bond with a cysteine. To divert this energy into ^1O2 generation, we carried out saturation mutagenesis of the relevant cysteine (Cys426) of the LOV2 domain of Arabidopsis thaliana phototropin 2 (AtPhot2). To screen for optimal ^1O2 production, these site-specific mutants were fused to an infrared fluorescent protein, IFP1.4, which is readily bleached by ^1O2 [21]. Colonies of E. coli expressing the fusion proteins were imaged in the IFP channel (ex 684/em 708 nm) before and after blue light (488 nm) illumination (FIG. 1A). […] The small side chain of the glycine residue may provide space around the cofactor that would allow O2 close apposition to FMN for efficient energy transfer.
[…] was synthesized by overlap extension PCR [48]. Genetic libraries were constructed by saturation and random mutagenesis and DNA shuffling. Mutants were fused to IFP1.4 by overlap extension PCR and cloned into a modified pBAD vector containing the heme oxygenase-1 gene from cyanobacteria. Libraries were expressed in E. coli strain TOP10 and screened by imaging the agar plates with colonies in the IFP channel before and after blue light illumination. Protein purification and spectroscopic characterization experiments were done as described.

B1: C426G (protein)
chain: MERPRAPPSPLNDAESLSERRSLEIFNPSSGKETHGSTSSSSKPPLDGNNKGSSSKWMEFQDSAKITERTAEWGLSAVKPDSGDDGISFKLSSEVERSKNMSRRSSEESTSSESGAFPRVSQELKTALSTLQQTFVVSDATQPHCPIVYASSGFFTMTGYSSKEIVGRNCRFLQGPDTDKNEVAKIRDCVKNGKSYCGRLLNYKKDGTPFWNLLTVTPIKDDQGNTIKFIGMQVEVSKYTEGVNDKALRPNGLSKSLIRYDARQKEKALDSITEVVQTIRHRKSQVQESVSNDTMVKPDSSTTPTPGRQTRQSDEASKSFRTPGRVSTPTGSKLKSSNNRHEDLLRMEPEELMLSTEVIGQRDSWDLSDRERDIRQGIDLATTLERIEKNFVISDPRLPDNPIIFASDSFLELTEYSREEILGRNGRFLQGPETDQATVQKIRDAIRDQREITVQLINYTKSGKKFWNLFHLQPMRDQKGELQYFIGVQLDGSDHVEPLQNRLSERTEMQSSKLVKATATNVDEAVRELPDANTRPEDLWAAHSKPVYPLPHNKESTSWKAIKKIQASGETVGLHHFKPIKPLGSGDTGSVHLVELKGTGELYAMKAMEKTMMLNRNKAHRACIEREIISLLDHPFLPTLYASFQTSTHVCLITDFCPGGELFALLDRQPMKILTEDSARFYAAEVVIGLEYLHCLGIVYRDLKPENILLKKDGHIVLADFDLSFMTTCTPQLIIPAAPSKRRRSKSQPLPTFVAEPSTQSNSFVGTEEYIAPEIITGAGHTSAIDWWALGILLYEMLYGRTPFRGKNRQKTFANILHKDLTFPSSIPVSLVGRQLINTLLNRDPSSRLGSKGGANEIKQHAFFRGINWPLIRGMSPPPLDAPLSIIEKDPNAKDIKWEDDGVLVNSTDLDIDLF
modifications: miniSOG polypeptide
On to B1, for which the “decrease of IFP fluorescence” value (blue light (488 nm) illumination) was −70%. Moreover, the “IFP1.4 brightness before irradiation” value (two colonies, fusion to IFP1.4) is 100 and 96. Also, the “IFP1.4 brightness after irradiation” value (two colonies, irradiation at 480/30 nm) was 27 and 28.
